Columns and labels:
[1] = molecular target: MfPC α subunit expressed and purified alone (pET28a, N-terminal hexa-histidine tag) (Methylobacillus flagellatus); test: SEC; analytical gel filtration of separately purified MfPC α and β subunits, alone and mixed in 1:2, 1:1 or 2:1 molar ratios; peak fractions on SDS-PAGE
[2] = molecular target: Methylobacillus flagellatus pyruvate carboxylase (MfPC) α subunit, N-terminal hexa-histidine tag, co-expressed with the β subunit (Methylobacillus flagellatus); test: SEC; gel filtration of two-subunit PCs purified from E. coli co-expression, with Coomassie-stained SDS-PAGE of the purified complexes and of known amounts of α and β subunits; also with an extra plasmid expressing only α
[3] = molecular target: Pseudomonas aeruginosa pyruvate carboxylase (PaPC) α subunit (Pseudomonas aeruginosa); test: AUC; sedimentation velocity, 0.5 mg/ml, 20 °C, 42,000 r.p.m., 20 mM Tris pH 8.0, 150 mM NaCl, continuous c(s) distribution (SEDFIT)
[4] = molecular target: MfPC β subunit with the surface entropy reduction mutations K419A, E421A and E422A, untagged (Methylobacillus flagellatus); test: crystal structure; mutant MfPC (B domain deletion in α; K419A, E421A, E422A in β), 3.0 Å, space group R32, one α2β4 oligomer in the asymmetric unit; sitting drop, 20 °C, 2.5 mM pyruvate, 19% PEG3350, 2% tacsimate pH 6.0, 3% ethanol
[5] = molecular target: MfPC α subunit with the B sub-domain of BC (residues 131–201) replaced by a Gly–Ser–Ser–Gly linker (Methylobacillus flagellatus); test: as above
[6] = molecular target: Methylobacillus flagellatus pyruvate carboxylase (MfPC) α subunit, N-terminal hexa-histidine tag, co-expressed with the β subunit (Methylobacillus flagellatus); test: crystal structure; 'wild-type' MfPC (K419A, E421A, E422A in β), 6.6 Å, space group P3(1)21, one α and two β in the asymmetric unit, α2β4 by a crystallographic two-fold axis; 2.5 mM ATP and 2.5 mM pyruvate, 1.3 M ammonium sulfate, 0.1 M sodium citrate pH 6.0
[7] = molecular target: MfPC β subunit with the surface entropy reduction mutations K419A, E421A and E422A, untagged (Methylobacillus flagellatus); test: as above
[8] = molecular target: MfPC β subunit K581A mutant, purified alone (Methylobacillus flagellatus)
[9] = molecular target: T1, SaPC (single-chain pyruvate carboxylase) (Staphylococcus aureus, UniProt A0A0H3JRU9); test: malate dehydrogenase-coupled PC activity with and without acetyl-CoA; type: biochemical; details: allosteric activator
T1 construct: gene pycA; single-chain homo-tetramer, ~570 kDa by AUC; expression not described here
T1 sequence (A0A0H3JRU9 1-1150): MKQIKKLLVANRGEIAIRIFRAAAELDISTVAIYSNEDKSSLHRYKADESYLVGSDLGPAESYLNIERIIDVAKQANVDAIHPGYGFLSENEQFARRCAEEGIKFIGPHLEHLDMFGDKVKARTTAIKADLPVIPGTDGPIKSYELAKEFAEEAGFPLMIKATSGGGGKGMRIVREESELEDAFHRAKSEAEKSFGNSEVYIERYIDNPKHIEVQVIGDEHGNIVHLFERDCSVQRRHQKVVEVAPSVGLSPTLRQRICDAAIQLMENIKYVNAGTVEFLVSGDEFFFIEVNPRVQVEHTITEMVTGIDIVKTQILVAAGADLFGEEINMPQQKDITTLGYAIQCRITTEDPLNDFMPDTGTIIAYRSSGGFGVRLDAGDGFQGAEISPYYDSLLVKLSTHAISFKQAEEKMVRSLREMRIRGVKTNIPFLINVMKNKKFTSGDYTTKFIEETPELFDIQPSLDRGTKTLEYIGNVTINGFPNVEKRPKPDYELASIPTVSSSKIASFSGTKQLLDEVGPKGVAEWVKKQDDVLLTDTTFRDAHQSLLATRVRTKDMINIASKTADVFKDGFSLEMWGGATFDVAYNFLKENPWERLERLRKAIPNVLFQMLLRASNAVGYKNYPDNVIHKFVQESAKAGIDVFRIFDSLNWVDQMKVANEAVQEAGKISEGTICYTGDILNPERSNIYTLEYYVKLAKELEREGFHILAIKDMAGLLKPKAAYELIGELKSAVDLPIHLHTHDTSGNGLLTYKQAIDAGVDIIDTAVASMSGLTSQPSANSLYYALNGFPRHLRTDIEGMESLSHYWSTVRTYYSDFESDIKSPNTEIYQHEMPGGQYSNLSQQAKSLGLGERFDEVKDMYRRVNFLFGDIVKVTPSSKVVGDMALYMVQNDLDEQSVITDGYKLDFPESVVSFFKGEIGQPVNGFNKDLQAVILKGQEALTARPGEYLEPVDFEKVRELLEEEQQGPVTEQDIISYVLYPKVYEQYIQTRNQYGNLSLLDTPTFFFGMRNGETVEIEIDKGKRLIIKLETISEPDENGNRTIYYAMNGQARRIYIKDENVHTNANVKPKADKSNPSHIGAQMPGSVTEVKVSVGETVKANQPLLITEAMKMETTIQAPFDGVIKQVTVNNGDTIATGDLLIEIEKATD

[10] = molecular target: the molecule itself; test: AUC; sedimentation velocity, 0.5 mg/ml, 20 °C, 42,000 r.p.m., 20 mM Tris pH 8.0, 150 mM NaCl, continuous c(s) distribution (SEDFIT)

Molecule: MfPC β subunit expressed and purified alone (pET28a, N-terminal hexa-histidine tag) (enzyme)
- stoichiometry N [1]: 2 β per α

Molecule: Methylobacillus flagellatus pyruvate carboxylase (MfPC) β subunit, untagged, co-expressed with the α subunit (enzyme)
- stoichiometry N [2]: 2 β per α

Molecule: Pseudomonas aeruginosa pyruvate carboxylase (PaPC) β subunit (enzyme)
- stoichiometry N [3]: 2 β per α

Molecule: MfPC β subunit with the surface entropy reduction mutations K419A, E421A and E422A, untagged (enzyme)
- stoichiometry N [4]: 2
- stoichiometry N [5]: 2 β per α
- stoichiometry N [6]: 2 β per α
- stoichiometry N [7]: 2

Molecule: MfPC β subunit A49T mutant, purified alone (enzyme)
- pyruvate carboxylase activity of hybrid holoenzymes (A49T and K581A β subunits mixed in a 1:1 ratio, then α subunit added), against the wild-type holoenzyme (% of wild-type activity) [8]: 29

Molecule: CC(=O)SCCNC(=O)CCNC(=O)[C@H](O)C(C)(C)COP(=O)(O)OP(=O)(O)OC[C@H]1O[C@@H](n2cnc3c(N)ncnc32)[C@H](O)[C@@H]1OP(=O)(O)O [acetyl-CoA]
- activation [9]: When acetyl-CoA is present, SaPC activity becomes comparable to those of the two-subunit PCs

B1: Staphylococcus aureus pyruvate carboxylase (SaPC), single-chain (enzyme, UniProt A0A0H3JRU9 1-1150, looked up)
chain: MKQIKKLLVANRGEIAIRIFRAAAELDISTVAIYSNEDKSSLHRYKADESYLVGSDLGPAESYLNIERIIDVAKQANVDAIHPGYGFLSENEQFARRCAEEGIKFIGPHLEHLDMFGDKVKARTTAIKADLPVIPGTDGPIKSYELAKEFAEEAGFPLMIKATSGGGGKGMRIVREESELEDAFHRAKSEAEKSFGNSEVYIERYIDNPKHIEVQVIGDEHGNIVHLFERDCSVQRRHQKVVEVAPSVGLSPTLRQRICDAAIQLMENIKYVNAGTVEFLVSGDEFFFIEVNPRVQVEHTITEMVTGIDIVKTQILVAAGADLFGEEINMPQQKDITTLGYAIQCRITTEDPLNDFMPDTGTIIAYRSSGGFGVRLDAGDGFQGAEISPYYDSLLVKLSTHAISFKQAEEKMVRSLREMRIRGVKTNIPFLINVMKNKKFTSGDYTTKFIEETPELFDIQPSLDRGTKTLEYIGNVTINGFPNVEKRPKPDYELASIPTVSSSKIASFSGTKQLLDEVGPKGVAEWVKKQDDVLLTDTTFRDAHQSLLATRVRTKDMINIASKTADVFKDGFSLEMWGGATFDVAYNFLKENPWERLERLRKAIPNVLFQMLLRASNAVGYKNYPDNVIHKFVQESAKAGIDVFRIFDSLNWVDQMKVANEAVQEAGKISEGTICYTGDILNPERSNIYTLEYYVKLAKELEREGFHILAIKDMAGLLKPKAAYELIGELKSAVDLPIHLHTHDTSGNGLLTYKQAIDAGVDIIDTAVASMSGLTSQPSANSLYYALNGFPRHLRTDIEGMESLSHYWSTVRTYYSDFESDIKSPNTEIYQHEMPGGQYSNLSQQAKSLGLGERFDEVKDMYRRVNFLFGDIVKVTPSSKVVGDMALYMVQNDLDEQSVITDGYKLDFPESVVSFFKGEIGQPVNGFNKDLQAVILKGQEALTARPGEYLEPVDFEKVRELLEEEQQGPVTEQDIISYVLYPKVYEQYIQTRNQYGNLSLLDTPTFFFGMRNGETVEIEIDKGKRLIIKLETISEPDENGNRTIYYAMNGQARRIYIKDENVHTNANVKPKADKSNPSHIGAQMPGSVTEVKVSVGETVKANQPLLITEAMKMETTIQAPFDGVIKQVTVNNGDTIATGDLLIEIEKATD
notes: single-chain pyruvate carboxylase, Staphylococcus aureus; Used as a control in the ultracentrifugation
- stoichiometry N [10]: 4
